Source: patent US20210205403A1 (RESEARCH FOUNDATION FOR THE STATE UNIVERSITY OF NEW YORK, published 2021)

Biological target: HDM-2 in the cancer cell membrane (human, UniProt Q00987 1-491)
Assay: cell-based or functional assay

HDM-2 in the cancer cell membrane, sequence (Q00987 whole entry): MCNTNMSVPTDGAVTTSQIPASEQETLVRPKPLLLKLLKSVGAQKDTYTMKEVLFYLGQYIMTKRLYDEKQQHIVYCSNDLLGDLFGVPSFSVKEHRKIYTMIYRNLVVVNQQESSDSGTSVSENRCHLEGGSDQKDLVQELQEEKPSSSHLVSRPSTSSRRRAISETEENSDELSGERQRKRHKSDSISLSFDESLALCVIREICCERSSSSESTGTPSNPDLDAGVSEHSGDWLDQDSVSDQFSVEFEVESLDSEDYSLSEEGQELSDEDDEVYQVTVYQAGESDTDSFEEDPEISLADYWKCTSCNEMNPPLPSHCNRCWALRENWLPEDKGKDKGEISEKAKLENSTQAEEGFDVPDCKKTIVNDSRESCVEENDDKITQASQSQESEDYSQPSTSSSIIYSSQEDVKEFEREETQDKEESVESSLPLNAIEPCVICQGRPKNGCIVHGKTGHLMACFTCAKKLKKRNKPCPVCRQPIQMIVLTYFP

IC50 (dose of PNC-27 on cancer cells): 125 µg/mL
Binder: PPLSQETFSDLWKLLKKWKMRRNQFWVKVQRG [PNC-27 (p53 aa12-26-MRP)]
